Data as given in PMC5717350, “The human CTF4-orthologue AND-1 interacts with DNA polymerase α/primase via its unique C-terminal HMG box” (Open Biology, 2017).

Legend:
[1] = target: the molecule itself; assay: SEC-MALS; 100 µl AND-1 336–826 at 2–4 mg/ml on Superdex S200 10/300 GL; 25 mM HEPES pH 7.0, 200 mM NaCl
AND-1 full length [2] = target: T1, AND-1 full length (human, UniProt O75717 1-1129); assay: fluorescence anisotropy; FP: 25 mM HEPES pH 7.2, 100 mM KCl, 0.5 mM TCEP, 20 nM DNA, 25 C; EMSA: 25 mM HEPES pH 7.2, 100 mM KCl, 5 mM MgCl2, TCEP, 3 uM DNA, 0.75% (so in the source) agarose gel in 0.5x Tris-borate pH 8.3, 4 C; conditions: protein: recombinant; tags: His10-myc; chain copies: 3; label: 5' 6FAM; single strand
T1 sequence: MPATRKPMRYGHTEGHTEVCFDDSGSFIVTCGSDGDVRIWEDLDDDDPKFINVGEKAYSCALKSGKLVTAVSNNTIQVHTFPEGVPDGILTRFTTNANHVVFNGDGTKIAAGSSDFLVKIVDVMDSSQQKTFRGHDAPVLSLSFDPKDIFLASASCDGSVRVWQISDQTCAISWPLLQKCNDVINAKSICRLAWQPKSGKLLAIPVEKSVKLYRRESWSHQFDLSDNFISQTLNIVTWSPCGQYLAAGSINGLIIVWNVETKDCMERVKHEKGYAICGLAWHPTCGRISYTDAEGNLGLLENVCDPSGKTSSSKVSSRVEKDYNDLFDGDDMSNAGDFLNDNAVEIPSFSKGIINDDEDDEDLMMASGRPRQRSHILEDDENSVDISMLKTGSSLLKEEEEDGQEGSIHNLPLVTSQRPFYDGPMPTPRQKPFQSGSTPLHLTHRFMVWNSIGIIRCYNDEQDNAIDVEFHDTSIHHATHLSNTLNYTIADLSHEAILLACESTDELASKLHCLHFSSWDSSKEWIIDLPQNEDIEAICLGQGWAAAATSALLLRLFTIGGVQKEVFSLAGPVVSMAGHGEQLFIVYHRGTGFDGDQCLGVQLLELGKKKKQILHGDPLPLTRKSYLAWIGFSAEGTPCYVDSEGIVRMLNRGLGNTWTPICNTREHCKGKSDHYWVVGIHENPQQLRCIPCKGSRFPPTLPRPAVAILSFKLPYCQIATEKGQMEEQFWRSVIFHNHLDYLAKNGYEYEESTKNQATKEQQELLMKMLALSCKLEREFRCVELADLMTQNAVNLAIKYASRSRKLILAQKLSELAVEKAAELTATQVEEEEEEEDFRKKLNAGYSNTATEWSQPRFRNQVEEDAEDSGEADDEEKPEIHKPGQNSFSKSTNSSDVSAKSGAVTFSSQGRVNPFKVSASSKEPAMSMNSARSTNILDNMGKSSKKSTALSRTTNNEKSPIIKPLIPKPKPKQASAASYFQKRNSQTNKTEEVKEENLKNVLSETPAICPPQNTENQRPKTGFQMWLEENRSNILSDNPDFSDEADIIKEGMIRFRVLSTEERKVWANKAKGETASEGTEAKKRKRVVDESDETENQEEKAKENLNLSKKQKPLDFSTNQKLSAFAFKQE

AND-1CT = target: T2, AND-1CT (human, UniProt O75717 837-1129); assay: as above; conditions: protein: recombinant; tags: none (His6-MBP removed by TEV); label: 5' 6FAM; single strand
T2 sequence: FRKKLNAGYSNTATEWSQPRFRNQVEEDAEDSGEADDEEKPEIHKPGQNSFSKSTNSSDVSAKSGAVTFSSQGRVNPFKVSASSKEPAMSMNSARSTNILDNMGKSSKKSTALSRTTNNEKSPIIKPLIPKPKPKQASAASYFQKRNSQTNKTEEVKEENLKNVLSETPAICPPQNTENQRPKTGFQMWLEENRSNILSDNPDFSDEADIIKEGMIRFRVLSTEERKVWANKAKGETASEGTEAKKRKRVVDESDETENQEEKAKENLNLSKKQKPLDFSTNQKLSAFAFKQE

AND-1 full length [3] = target: T1, AND-1 full length; assay: EMSA; 5 mM MgCl2; FP: 25 mM HEPES pH 7.2, 100 mM KCl, 0.5 mM TCEP, 20 nM DNA, 25 C; EMSA: 25 mM HEPES pH 7.2, 100 mM KCl, 5 mM MgCl2, TCEP, 3 uM DNA, 0.75% (so in the source) agarose gel in 0.5x Tris-borate pH 8.3, 4 C; conditions: protein: recombinant; tags: His10-myc; chain copies: 3; label: 5' 6FAM on strand 1; fork, 20 bp duplex (1:1-20 with 2:21-40), unpaired arms of 20 nt (1:21-40 3' arm, 2:1-20 5' arm)

B1: AND-1 SepB (336–826) (domain or fragment, human, UniProt O75717 336-826, looked up)
chain: GDFLNDNAVEIPSFSKGIINDDEDDEDLMMASGRPRQRSHILEDDENSVDISMLKTGSSLLKEEEEDGQEGSIHNLPLVTSQRPFYDGPMPTPRQKPFQSGSTPLHLTHRFMVWNSIGIIRCYNDEQDNAIDVEFHDTSIHHATHLSNTLNYTIADLSHEAILLACESTDELASKLHCLHFSSWDSSKEWIIDLPQNEDIEAICLGQGWAAAATSALLLRLFTIGGVQKEVFSLAGPVVSMAGHGEQLFIVYHRGTGFDGDQCLGVQLLELGKKKKQILHGDPLPLTRKSYLAWIGFSAEGTPCYVDSEGIVRMLNRGLGNTWTPICNTREHCKGKSDHYWVVGIHENPQQLRCIPCKGSRFPPTLPRPAVAILSFKLPYCQIATEKGQMEEQFWRSVIFHNHLDYLAKNGYEYEESTKNQATKEQQELLMKMLALSCKLEREFRCVELADLMTQNAVNLAIKYASRSRKLILAQKLSELAVEKAAELTAT
notes: source: E. coli Rosetta2(DE3), purified (Ni-NTA, Q-Sepharose, TEV cleavage, Superdex 200)
In the case of B1, the “stoichiometry N” value [1] is reported as 3.

Work on CTTCCGAGACCTTGCCCATCCCGTAGAACCTGTTATCCAA (ssDNA) [ssDNA 40mer (oligo A)] yielded a Kd (AND-1 full length [2]) of about 800 nM and a Kd (AND-1CT) of about 800 nM.

B2: fDNA (oligos A+C) (mixed)
DNA 1: CTTCCGAGACCTTGCCCATCCCGTAGAACCTGTTATCCAA
DNA 2: GCTACCTTTGAACCTACGATGATGGGCAAGGTCTCGGAAG
B2: binds (AND-1 full length [3]).
